Assay results: patent US20260258394A1, “PLANT ENZYMES WITH IMPROVED ACTIVITY” (MAX-PLANCK-GESELLSCHAFT ZUR FÖRDERUNG DER WISSENSCHAFTEN …, priority 2023, published 2026)
Numbering of substitutions follows the chain as printed.

Tests used:
Test in all cases: mass photometry of purified protein
[1] = molecular target: T1, PCC WT (M. extorquens) β-subunit (Methylorubrum extorquens)
T1 construct: Wild-type β-subunit of propionyl-CoA carboxylase, forms the β6 core; also called PCC wildtype; PCC from M. extorquens
T1 chain: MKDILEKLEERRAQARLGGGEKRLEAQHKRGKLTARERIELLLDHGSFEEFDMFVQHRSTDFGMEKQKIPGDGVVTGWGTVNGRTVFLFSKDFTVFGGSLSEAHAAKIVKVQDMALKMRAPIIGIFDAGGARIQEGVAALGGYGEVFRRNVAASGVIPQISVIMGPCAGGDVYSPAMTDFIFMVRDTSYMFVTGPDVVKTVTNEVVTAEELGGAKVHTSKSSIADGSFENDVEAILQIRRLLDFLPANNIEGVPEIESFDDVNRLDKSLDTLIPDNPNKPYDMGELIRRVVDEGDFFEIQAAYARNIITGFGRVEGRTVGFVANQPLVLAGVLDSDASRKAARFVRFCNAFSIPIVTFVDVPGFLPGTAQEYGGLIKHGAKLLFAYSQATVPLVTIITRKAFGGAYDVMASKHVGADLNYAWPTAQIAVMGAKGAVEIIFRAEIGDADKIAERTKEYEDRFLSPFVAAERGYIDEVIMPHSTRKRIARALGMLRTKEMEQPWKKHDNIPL
Protocol: (§1) Mass photometry (MP) measurements were carried out on microscope coverslips (1.5 H, 24×50 mm, Carl Roth) with CultureWell™ Reusable Gaskets (CW-50R-1.0, 50-3 mm diameter×1 mm depth) that had been washed by three consecutive rinses of water and isopropanol, prior to drying under a stream of pressurized air. Gaskets were assembled on microscope coverslips and placed on the stage of a TwoMP mass photometer (MP, Refeyn Ltd, Oxford, UK) with immersion oil. Measurements were carried out in 1× phosphate-buffered saline (PBS, 10 mM Na₂HPO₄, 1.8 mM KH₂PO₄, 137 mM NaCl, 2.7 mM KCl (pH 7.4)). To this end, 18 μL 1×PBS was used to focus the MP before 2 μL sample (1 μM protein) was added, rapidly mixed, and measured. Shortly before measuring, samples were prepared by diluting purified protein to 1 μM monomer concentration in buffer (50 mM HEPES, pH 7.8, 150 mM KCl), as determined by absorption at 280 nm. Data was acquired for 60 s at 100 frames per second using AcquireMP (Refeyn Ltd, Oxford, UK). MP contrast was calibrated to molecular masses using 50 nM of in-house purified protein mixture containing citrate-synthase complexes of known molecular masses ranging from 86 to 430 kDa. MP datasets were processed and analyzed using DiscoverMP (Refeyn Ltd, Oxford, UK). Details of MP image analysis have been described previously (Sonn-Segev, et al., 2020, Nat Commun 11, 1772).

[2] = molecular target: T2, GCC M5 (M. extorquens) β-subunit L100S, Y143H, D407I, I450V, W502R mutations (Methylorubrum extorquens)
T2 construct: Engineered β-subunit (carboxyltransferase), forms the β6 core; also called S100S; β6 core of GCC M5
T2 chain: T1 chain with L100S, Y143H, D407I, I450V, W502R
Protocol: as §1

[3] = molecular target: T3, GCC M5_L100N (M. extorquens) β-subunit L100N, Y143H, D407I, I450V, W502R mutations (Methylorubrum extorquens)
T3 construct: Engineered β-subunit, forms the β6 core; Cryo-EM structure PDB 8PN8; also called S100N; GCC M5 S100N
T3 chain: T1 chain with L100N, Y143H, D407I, I450V, W502R
Protocol: as §1

Measured: binding result

B1: PCC WT (M. extorquens) α-subunit (enzyme)
chain: MFDKILIANRGEIACRIIKTAQKMGIKTVAVYSDADRDAVHVAMADEAVHIGPAPAAQSYLLIEKIIDACKQTGAQAVHPGYGFLSERESFPKALAEAGIVFIGPNPGAIAAMGDKIESKKAAAAAEVSTVPGFLGVIESPEHAVTIADEIGYPVMIKASAGGGGKGMRIAESADEVAEGFARAKSEASSSFGDDRVFVEKFITDPRHIEIQVIGDKHGNVIYLGERECSIQRRNQKVIEEAPSPLLDEETRRKMGEQAVALAKAVNYDSAGTVEFVAGQDKSFYFLEMNTRLQVEHPVTEMITGLDLVELMIRVAAGEKLPLSQDQVKLDGWAVESRVYAEDPTRNFLPSIGRLTTYQPPEEGPLGGAIVRNDTGVEEGGEIAIHYDPMIAKLVTWAPTRLEAIEAQATALDAFAIEGIRHNIPFLATLMAHPRWRDGRLSTGFIKEEFPEGFIAPEPEGPVAHRLAAVAAAIDHKLNIRKRGISGQMRDPSLLTFQRERVVVLSGQRFNVTVDPDGDDLLVTFDDGTTAPVRSAWRPGAPVWSGTVGDQSVAIQVRPLLNGVFLQHAGAAAEARVFTRREAELADLMPVKENAGSGKQLLCPMPGLVKQIMVSEGQEVKNGEPLAIVEAMKMENVLRAERDGTISKIAAKEGDSLAVDAVILEFA
modifications: biotin covalently bound to a lysine (position not given)
notes: Co-expressed with the β-subunit and BirA in E. coli BL21-birA and purified by His-Trap; also called α-subunit of the PCC; GCC M5 α-subunit
binds: all assays above
